Assay results reported in PMC4964276 (The Biochemical journal, 2016).

Target: RIIα-D/D(1–44) used for ITC (human, UniProt P13861 1-44)
Assay: ITC

Chain of RIIα-D/D(1–44) used for ITC (P13861 1-44): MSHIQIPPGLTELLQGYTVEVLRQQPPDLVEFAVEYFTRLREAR

B1: AKAP18β(43–83) (domain or fragment, human)
chain: NGGEPDDAELVRLSKRLVENAVLKAVQQYLEETQNKNKPGE
Question: B1 was tested. Which Kd did it give?
Answer: The Kd was 0.6 nM.

Question: What about the dH of the same binder?
Answer: The dH was -22550 ± 171.

Question: And the “stoichiometry N” value?
Answer: The value was 0.98 sites.
